The results in this text go back to patent publication US5783681, “Androgen regulation with DNA sequences of rat probasin gene” (University of Manitoba).

Conditions in all cases: tags: GST fusion, expressed in E. coli; chain copies: 2
Data set [1] addresses T1, GST-AR2 (androgen receptor DNA-binding domain and hinge region) (Rattus norvegicus, UniProt P15207 P15207:541-650). As to the kind of experiment: footprint; site -140 to -117 protected within probasin 5'-flanking DNA. As to the method:
(§1) The DNase I footprinting was performed essentially as described (Von der Ahe et al., 1993; Rennie et al., 1993). Proteins (10 ng to 18 µg) were incubated with 20,000 cpm of the labelled DNA in 100 µl of DNA binding buffer for 30 min at 20° C. After adjusting the samples to 4 mM MgCl_2 and 2.5 CaCl_2 mM, 5 ng of DNase I was added and allowed to digest the DNA for 2 minutes at 20° C. The reaction was stopped by adding 100 µl of stop buffer (0.25% SDS, 0.3M EGTA, and 500 µg/ml of proteinase K) and incubated for 1 hour at 37° C. The samples were extracted with phenol-chloroform; precipitated with 0.2M sodium acetate, 85 µg/ml carrier tRNA, and 2 volumes of ethanol; redissolved in 3 µl of formamide dye solution. After heating at 70° C. for 10 minutes and rapid cooling on ice, the samples were loaded, together with an A+G Maxam-Gilbert sequencing reaction to obtain a purine ladder, on 7% polyacrylamide/urea gels (acrylamide:bis, 30:1) and run (Rennie et al., 1993). The gels were dried and set up for autoradiography.
(§2) The androgen response elements (ARE) are located at −241 to −223 (ARE-1) and −140 to −117 (ARE-2). The sequence of ARE-1 and ARE-2 in the 5'-flanking PB DNA were determined using DNase I footprinting assays with peptides containing the DNA-binding domain of the androgen receptor and later bioassay of the functional domains. […]

Data set [2] deals with T2, GST-AR1 (androgen receptor DNA- and steroid-binding domains) (Rattus norvegicus, UniProt P15207 P15207:541-902). The description is as above. Here is the method:
as §1, §2

The target of data set [3] is T1, GST-AR2 (androgen receptor DNA-binding …). Nature of the data set: footprint; site -236 to -223 protected within probasin 5'-flanking DNA. As to the method: as §1, §2
Data set [4] concerns the target T2, GST-AR1 (androgen receptor DNA- and …). The data set is described as above. As to the method:
as §1, §2

T2 sequence (P15207 541-902, one chain of several): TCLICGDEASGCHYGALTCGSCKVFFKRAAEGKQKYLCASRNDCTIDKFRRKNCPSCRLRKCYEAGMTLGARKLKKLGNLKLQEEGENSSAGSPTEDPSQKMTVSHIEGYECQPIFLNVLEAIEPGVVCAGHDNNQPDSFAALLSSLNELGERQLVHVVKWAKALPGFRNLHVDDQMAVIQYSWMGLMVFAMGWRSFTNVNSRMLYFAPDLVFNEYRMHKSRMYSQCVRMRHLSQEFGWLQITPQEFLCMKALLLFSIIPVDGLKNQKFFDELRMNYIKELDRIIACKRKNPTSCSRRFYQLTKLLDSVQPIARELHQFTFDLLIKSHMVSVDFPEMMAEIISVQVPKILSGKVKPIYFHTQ
T1 sequence (P15207 541-650, one chain of several): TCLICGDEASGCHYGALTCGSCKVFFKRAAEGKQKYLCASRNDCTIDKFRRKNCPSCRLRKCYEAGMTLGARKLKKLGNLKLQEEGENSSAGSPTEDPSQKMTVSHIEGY

B1: probasin ARE-2 (dsDNA)
DNA 1: GTAAAGTACTCCAAGAACCTATTT
DNA 2: AAATAGGTTCTTGGAGTACTTTAC
For B1, the binding result in data set [1] and in data set [2] was “binds” each time.

B2: probasin ARE-1 (dsDNA)
DNA 1: ATAGCATCTTGTTCTTAGT
DNA 2: ACTAAGAACAAGATGCTAT
For B2, the binding result in data set [3] and in data set [4] was “binds” in each case.
